Experiment [1] addresses Gi (endogenous G protein of the CHO cells). Nature of the experiment: cell-based or functional assay.
In experiment [2] the target is Gi/Go (endogenous G proteins of the CHO cells). The experiment can be described thus: cell-based or functional assay.

Positions count from the first letter of the chain named.

B1: Del322-325 human alpha-2C adrenergic receptor, P18825 1-462 (receptor)
chain: MASPALAAALAVAAAAGPNASGAGERGSGGVANASGASWGPPRGQYSAGAVAGLAAVVGFLIVFTVVGNVLVVIAVLTSRALRAPQNLFLVSLASADILVATLVMPFSLANELMAYWYFGQVWCGVYLALDVLFCTSSIVHLCAISLDRYWSVTQAVEYNLKRTPRRVKATIVAVWLISAVISFPPLVSLYRQPDGAAYPQCGLNDETWYILSSCIGSFFAPCLIMGLVYARIYRVAKRRTRTLSEKRAPVGPDGASPTTENGLGAAAGAGENGHCAPPPADVEPDESSAAAERRRRRGALRRGGRRRAGAEGGAGGADGQGAAESGALTASRSPGPGGRLSRASSRSVEFFLSRRRRARSSVCRRKVAQAREKRFTFVLAVVMGVFVLCWFPFFFIYSLYGICREACQVPGPLFKFFFWIGYCNSSLNPVIYTVFNQDFRPSFKHILFRRRRRGFRQ
For the molecule B1, the inhibition of adenylyl cyclase (epinephrine) in experiment [1] was determined as 10 % inhibition. For the same molecule, in experiment [2], the high affinity dissociation constant KH of epinephrine (competition with [3H]yohimbine, no GTP) is 7.3 nM and the percentage of receptors in the high-affinity state (% RH) is 31%.

B2: polymorphic Lys251 human alpha-2A adrenergic receptor, P08913 16-465 (receptor)
chain: MGSLQPDAGNASWNGTEAPGGGARATPYSLQVTLTLVCLAGLLMLLTVFGNVLVIIAVFTSRALKAPQNLFLVSLASADILVATLVIPFSLANEVMGYWYFGKAWCEIYLALDVLFCTSSIVHLCAISLDRYWSITQAIEYNLKRTPRRIKAIIITVWVISAVISFPPLISIEKKGGGGGPQPAEPRCEINDQKWYVISSCIGSFFAPCLIMILVYVRIYQIAKRRTRVPPSRRGPDAVAAPPGGTERRPKGLGPERSAGPGGAEAEPLPTQLNGAPGEPAPAGPRDTDALDLEESSSSDHAERPPGPRRPERGPRGKGKARASQVKPGDSLPRRGPGATGIGTPAAGPGEERVGAAKASRWRGRQNREKRFTFVLAVVIGVFVVCWFPFFFTYTLTAVGCSVPRTLFKFFFWFGYCNSSLNPVIYTIFNHDFRRAFKKILCRGDRKRIV
In experiment [1], B2 yielded an inhibition of adenylyl cyclase of 60 % inhibition and a stimulation of MAP kinase (fold increase over basal) of 57.

B3: wild-type Asn251 human alpha-2A adrenergic receptor, P08913 16-465 (receptor)
chain: B2 chain with K251N
In experiment [1], B3 showed an inhibition of adenylyl cyclase of 46 % inhibition and a stimulation of MAP kinase (fold increase over basal) of 15.

B4: wild-type human alpha-2C adrenergic receptor, P18825 1-462 (receptor)
chain: MASPALAAALAVAAAAGPNASGAGERGSGGVANASGASWGPPRGQYSAGAVAGLAAVVGFLIVFTVVGNVLVVIAVLTSRALRAPQNLFLVSLASADILVATLVMPFSLANELMAYWYFGQVWCGVYLALDVLFCTSSIVHLCAISLDRYWSVTQAVEYNLKRTPRRVKATIVAVWLISAVISFPPLVSLYRQPDGAAYPQCGLNDETWYILSSCIGSFFAPCLIMGLVYARIYRVAKRRTRTLSEKRAPVGPDGASPTTENGLGAAAGAGENGHCAPPPADVEPDESSAAAERRRRRGALRRGGRRRAGAEGGAGGADGQGAGPGAAESGALTASRSPGPGGRLSRASSRSVEFFLSRRRRARSSVCRRKVAQAREKRFTFVLAVVMGVFVLCWFPFFFIYSLYGICREACQVPGPLFKFFFWIGYCNSSLNPVIYTVFNQDFRPSFKHILFRRRRRGFRQ
As for B4, the inhibition of adenylyl cyclase (epinephrine) in experiment [1] amounted to 73 % inhibition. Further, in experiment [2], the high affinity dissociation constant KH of epinephrine (competition with [3H]yohimbine, no GTP) is 3.7 nM and the percentage of receptors in the high-affinity state (% RH) amounted to 42%.

The record behind these values is patent publication US20060073508A1.
